Where two headings read alike, the source gives them in different places. Ends that are not written are not given here.
What was measured:
human LGR7 [1] = target: T1, human LGR7 (human, UniProt Q9HBX9 1-757); assay: cell-based or functional assay
T1 sequence (looked up): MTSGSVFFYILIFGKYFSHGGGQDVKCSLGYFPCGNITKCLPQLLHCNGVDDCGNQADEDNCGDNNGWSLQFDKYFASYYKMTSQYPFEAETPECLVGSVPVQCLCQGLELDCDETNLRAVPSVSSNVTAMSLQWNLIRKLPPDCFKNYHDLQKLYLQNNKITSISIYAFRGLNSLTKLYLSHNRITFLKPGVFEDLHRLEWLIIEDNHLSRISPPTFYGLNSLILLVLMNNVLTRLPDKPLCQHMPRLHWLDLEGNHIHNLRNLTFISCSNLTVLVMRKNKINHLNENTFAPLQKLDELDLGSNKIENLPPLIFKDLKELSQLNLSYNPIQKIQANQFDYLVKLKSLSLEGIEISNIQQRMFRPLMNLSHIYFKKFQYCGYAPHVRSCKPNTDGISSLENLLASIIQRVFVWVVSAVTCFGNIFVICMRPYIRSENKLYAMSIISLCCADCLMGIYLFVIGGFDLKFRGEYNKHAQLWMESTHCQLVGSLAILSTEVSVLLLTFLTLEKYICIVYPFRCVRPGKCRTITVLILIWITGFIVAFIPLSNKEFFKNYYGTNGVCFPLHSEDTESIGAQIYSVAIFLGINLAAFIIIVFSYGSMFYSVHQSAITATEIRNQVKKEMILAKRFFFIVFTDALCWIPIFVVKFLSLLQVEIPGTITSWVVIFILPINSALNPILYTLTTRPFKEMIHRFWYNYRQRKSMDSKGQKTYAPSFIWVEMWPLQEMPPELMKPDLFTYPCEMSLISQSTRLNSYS

human LGR8 [2] = target: T2, human LGR8 (human, UniProt Q8WXD0 1-754); assay: cell-based or functional assay
human GPCR135 [3] = target: T3, human GPCR135 (human, UniProt Q9NSD7 1-469); assay: cell-based or functional assay
T3 sequence: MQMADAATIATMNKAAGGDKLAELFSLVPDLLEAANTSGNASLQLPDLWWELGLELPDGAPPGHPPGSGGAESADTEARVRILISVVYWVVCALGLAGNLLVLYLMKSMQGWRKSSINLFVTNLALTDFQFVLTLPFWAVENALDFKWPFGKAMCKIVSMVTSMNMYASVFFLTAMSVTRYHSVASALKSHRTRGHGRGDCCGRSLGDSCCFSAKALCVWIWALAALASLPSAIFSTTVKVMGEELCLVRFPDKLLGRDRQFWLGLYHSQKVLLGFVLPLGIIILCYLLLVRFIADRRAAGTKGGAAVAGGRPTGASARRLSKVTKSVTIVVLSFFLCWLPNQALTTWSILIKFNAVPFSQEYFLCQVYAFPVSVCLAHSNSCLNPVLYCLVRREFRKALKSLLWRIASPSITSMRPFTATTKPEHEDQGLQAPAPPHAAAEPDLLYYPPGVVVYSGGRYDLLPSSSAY

human GPCR142 [4] = target: T4, human GPCR142 (human, UniProt Q8TDU9 1-374); assay: cell-based or functional assay
human LGR8 [5] = target: T2, human LGR8; assay: cell-based or functional assay; remark: listed apart in the source
human GPCR135 [6] = target: T3, human GPCR135; assay: cell-based or functional assay; remark: listed apart in the source
human GPCR142 [7] = target: T4, human GPCR142; assay: cell-based or functional assay; remark: listed apart in the source
human LGR7 [8] = target: T1, human LGR7; assay: cell-based or functional assay; remark: listed apart in the source
human LGR8 [9] = target: T2, human LGR8; assay: cell-based or functional assay; remark: listed apart in the source
human LGR8 [10] = target: T2, human LGR8; assay: competition with [125I]-INSL3 (100 pM), live COS-7 cells with human LGR8
Method: (§1) Different unlabeled peptides were used in the binding assay as the competitors. […] Data represent mean±SEM (n=3).
(§2) Radioligand binding assays for LGR7 and LGR8 were performed using live COS-7 cells transiently transfected with LGR7 or LGR8 expression plasmids in 15-cm culture dishes using LipofectAmine (Invitrogen). Two days after transfection, the transfected cells were detached from the 15-cm culture dished using phosphate buffered saline (PBS) plus 10 mM EDTA, seeded into 96-well opaque poly-D-lysine coated culture plates and used for radioligand binding assays. […] [¹²⁵I]-labeled tracer was added in binding reactions at a final concentration of 100 pM in binding buffer containing DMEM plus 50 mM HEPES and 1% bovine serum albumin. […] The binding mixtures were incubated at room temperature for 1 hour. The unbound radioligand was removed by aspiration of the binding buffer. The cells were washed with PBS. The bound radioligand was counted in a scintillation counter (TopCount/NTX). The results were analyzed using Prism 3.0 program (Graphpad, San Diego, Calif.).

human LGR7 [11] = target: T1, human LGR7; assay: competition with [125I]-relaxin-3 (100 pM), live COS-7 cells with human LGR7
Method: as §1, §2

human GPCR135 [12] = target: T3, human GPCR135; assay: competition with [125I]-relaxin-3 (100 pM), COS-7 membranes with human GPCR135
Method: as §1
(§3) Peptides for competition binding studies were added to the binding mix (final volume: 200 μl) in binding buffer [50 mM Tris-HCl, pH 7.5, 5 mM EDTA, 1% bovine serum albumin, 0.1% protease inhibitor cocktails (Sigma)]. The binding mixtures were incubated at room temperature for 1 hour, filtered through GFC plates (Packard) pre-saturated with 0.3% Polyethylenimine (Sigma), and washed with cold washing buffer (50 mM Tris-HCl, pH 7.5, 5 mM EDTA).

human GPCR142 [13] = target: T4, human GPCR142; assay: competition with [125I]-relaxin-3 (100 pM), COS-7 membranes with human GPCR142
Method: as §1, §3

human LGR8 [14] = target: T2, human LGR8; assay: competition with [125I]-INSL3, live COS-7 cells with human LGR8; this end tied to R3/I3 by Table 1
Method: as §1, §2

human GPCR135 [15] = target: T3, human GPCR135; assay: cell-based or functional assay; remark: listed apart in the source
human GPCR142 [16] = target: T4, human GPCR142; assay: cell-based or functional assay; remark: listed apart in the source
human LGR7 [17] = target: T1, human LGR7; assay: cell-based or functional assay; remark: listed apart in the source
human LGR7 [18] = target: T1, human LGR7; assay: radioligand competition, live COS-7 cells with human LGR7
Method: as §1, §2

human LGR8 [19] = target: T2, human LGR8; assay: competition with [125I]-INSL3 (100 pM) on live COS-7 cells expressing human LGR8; ND denotes no activity was detected
Method: as §1, §2

T2 sequence (Q8WXD0 whole entry): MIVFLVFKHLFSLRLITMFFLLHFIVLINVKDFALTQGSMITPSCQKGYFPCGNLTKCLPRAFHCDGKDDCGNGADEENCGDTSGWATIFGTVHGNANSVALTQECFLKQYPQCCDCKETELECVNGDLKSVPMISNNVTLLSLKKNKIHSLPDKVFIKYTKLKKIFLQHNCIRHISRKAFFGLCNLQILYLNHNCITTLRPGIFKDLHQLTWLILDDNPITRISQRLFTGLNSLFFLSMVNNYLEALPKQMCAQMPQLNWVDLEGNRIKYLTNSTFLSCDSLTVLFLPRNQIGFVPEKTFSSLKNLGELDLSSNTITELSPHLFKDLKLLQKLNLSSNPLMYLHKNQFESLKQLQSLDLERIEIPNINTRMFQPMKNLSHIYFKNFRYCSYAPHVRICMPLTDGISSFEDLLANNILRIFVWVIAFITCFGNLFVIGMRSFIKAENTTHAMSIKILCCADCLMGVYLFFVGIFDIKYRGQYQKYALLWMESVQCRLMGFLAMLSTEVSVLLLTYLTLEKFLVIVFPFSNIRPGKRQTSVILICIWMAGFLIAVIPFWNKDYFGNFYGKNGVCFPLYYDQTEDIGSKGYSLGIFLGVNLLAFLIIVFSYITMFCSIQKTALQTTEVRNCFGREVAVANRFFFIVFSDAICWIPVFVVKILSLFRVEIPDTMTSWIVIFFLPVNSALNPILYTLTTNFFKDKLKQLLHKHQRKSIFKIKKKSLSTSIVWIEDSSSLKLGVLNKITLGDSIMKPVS
T4 sequence (Q8TDU9 whole entry L329S): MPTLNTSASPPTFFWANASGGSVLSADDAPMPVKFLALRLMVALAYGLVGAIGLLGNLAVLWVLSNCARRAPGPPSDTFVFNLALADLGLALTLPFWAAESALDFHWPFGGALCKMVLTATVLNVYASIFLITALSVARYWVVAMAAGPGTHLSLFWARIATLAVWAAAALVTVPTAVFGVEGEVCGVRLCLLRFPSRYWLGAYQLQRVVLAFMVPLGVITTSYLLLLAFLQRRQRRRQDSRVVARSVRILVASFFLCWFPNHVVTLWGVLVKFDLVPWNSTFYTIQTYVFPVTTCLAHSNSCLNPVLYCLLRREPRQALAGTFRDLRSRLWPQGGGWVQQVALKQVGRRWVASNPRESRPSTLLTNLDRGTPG

porcine relaxin (from UniProt P01348 25-182) (ligand)
EC50, stimulation of β-galactosidase activity (human LGR7 [1]): 0.25 nM
EC50, induction of β-galactosidase activity (human LGR8 [2]): 1.5 nM

human relaxin-3 B-chain (from UniProt Q8WXF3 26-52) (peptide)
EC50, inhibition of forskolin-stimulated β-galactosidase activity (human GPCR135 [3]): 88 nM
EC50, inhibition of forskolin-stimulated β-galactosidase activity (human GPCR142 [4]): 125 nM

B1: human relaxin-3/INSL3 chimeric polypeptide (R3/I3), mature (ligand)
chain: RAAPYGVRLCGREFIRAVIFTCGGSRWNPARYCCLSGCTQQDLLTLC
modifications: disulfide (positions not given here); also: two chains (relaxin-3 B-chain, INSL3 A-chain), disulfide-linked, chain break not marked
notes: Mature two-chain peptide: human relaxin-3 B-chain disulfide-linked to human INSL3 A-chain; FLAG tag removed
EC50, ligand stimulated β-galactosidase expression (human LGR8 [5]): ~300 nM
EC50, inhibition of forskolin stimulated β-galactosidase expression (human GPCR135 [6]): 2.2 nM
EC50, inhibition of forskolin stimulated β-galactosidase expression (human GPCR142 [7]): 2.9 nM
EC50, ligand stimulated β-galactosidase expression (human LGR7 [8]): 2.5 nM
EC50, ligand stimulated β-galactosidase expression (human LGR8 [9]): 258 nM
IC50 (human LGR8 [10]): 475 nM
IC50 (human LGR7 [11]): 2.3 nM
IC50 (human GPCR135 [12]): 2.3 nM
IC50 (human GPCR142 [13]): 3.5 nM
IC50 (human LGR8 [14]): 500 nM

B2: human relaxin-3/INSL6 chimeric polypeptide (R3/I6), mature (ligand)
chain: RAAPYGVRLCGREFIRAVIFTCGGSRWGYSEKCCLTGCTKEELSIAC
modifications: disulfide (positions not given here); also: two chains (relaxin-3 B-chain, INSL6 A-chain), disulfide-linked, chain break not marked
notes: Mature two-chain peptide: human relaxin-3 B-chain disulfide-linked to human INSL6 A-chain; FLAG tag removed
EC50, inhibition of forskolin stimulated β-galactosidase expression (human GPCR135 [15]): ~10 nM
EC50, inhibition of forskolin stimulated β-galactosidase expression (human GPCR142 [16]): ~10 nM
EC50, ligand stimulated β-galactosidase expression (human LGR7 [17]): 10 nM
EC50, inhibition of forskolin stimulated β-galactosidase expression (human GPCR135 [6]): 8.4 nM
EC50, inhibition of forskolin stimulated β-galactosidase expression (human GPCR142 [7]): 11.2 nM
EC50, ligand stimulated β-galactosidase expression (human LGR7 [8]): 13.7 nM
IC50 (human LGR7 [18]): 15 nM
IC50 (human LGR7 [11]): 12.9 nM
IC50 (human GPCR135 [12]): 9.5 nM
IC50 (human GPCR142 [13]): 11.3 nM
binding result (human LGR8 [19]): no binding

B3: human relaxin-3/relaxin-1 chimeric polypeptide (R3/R1), mature (ligand)
chain: RAAPYGVRLCGREFIRAVIFTCGGSRWPYVALFEKCCLIGCTKRSLAKYC
modifications: disulfide (positions not given here); also: two chains (relaxin-3 B-chain, relaxin-1 A-chain), disulfide-linked, chain break not marked
notes: Mature two-chain peptide: human relaxin-3 B-chain disulfide-linked to human relaxin-1 A-chain; Made in COS-7 cells with furin; the FLAG tag was removed with enterokinase
EC50, ligand stimulated β-galactosidase expression (human LGR7 [17]): 1 to 5 nM
EC50, inhibition of forskolin stimulated β-galactosidase expression (human GPCR135 [6]): 1.8 nM
EC50, inhibition of forskolin stimulated β-galactosidase expression (human GPCR142 [7]): 2.2 nM
EC50, ligand stimulated β-galactosidase expression (human LGR7 [8]): 4.5 nM
EC50, ligand stimulated β-galactosidase expression (human LGR8 [9]): > 1000 nM
IC50 (human LGR8 [10]): > 1000 nM
IC50 (human LGR7 [11]): 5.1 nM
IC50 (human GPCR135 [12]): 2.9 nM
IC50 (human GPCR142 [13]): 2.6 nM

B4: human relaxin-3/relaxin-2 chimeric polypeptide (R3/R2), mature (ligand)
chain: RAAPYGVRLCGREFIRAVIFTCGGSRWQLYSALANKCCHVGCTKRSLARFC
modifications: disulfide (positions not given here); also: two-chain peptide (relaxin-3 B chain, relaxin-2 A chain), disulfide-linked, places not given here
notes: Mature two-chain peptide: human relaxin-3 B-chain disulfide-linked to human relaxin-2 A-chain; FLAG tag removed
EC50, ligand stimulated β-galactosidase expression (human LGR7 [17]): 1 to 5 nM
EC50, ligand stimulated β-galactosidase expression (human LGR8 [5]): ~600 nM
EC50, inhibition of forskolin stimulated β-galactosidase expression (human GPCR135 [6]): 1.1 nM
EC50, inhibition of forskolin stimulated β-galactosidase expression (human GPCR142 [7]): 1.4 nM
EC50, ligand stimulated β-galactosidase expression (human LGR7 [8]): 1.1 nM
EC50, ligand stimulated β-galactosidase expression (human LGR8 [9]): 575 nM
IC50 (human LGR8 [10]): 615 nM
IC50 (human LGR7 [11]): 1.5 nM
IC50 (human GPCR135 [12]): 1.2 nM
IC50 (human GPCR142 [13]): 1.8 nM

B5: human INSL3 (ligand)
chain: PTPEMREKLCGHHFVRALVRVCGGPRWSTEANPARYCCLSGCTQQDLLTLC
modifications: ends and bridges not checked; also: 125I-labelled form used as tracer, site not given here
EC50, induction of β-galactosidase activity (human LGR8 [5]): 0.16 nM

— patent US20080051336A1 (Janssen / Centocor, published 2008)
